Experimental findings from patent US20200376136A1 (Regeneron, published 2020) are described below.

Bounds are passed on as bounds.

In general, EC50 refers to the concentration giving half of the maximal effect. Low readings indicate higher potency in that assay, high ones lower potency in that assay.

Assay [1] addresses T1, human six-transmembrane epithelial antigen of prostate 2 (STEAP2) (human, UniProt Q8NFT2 1-490).
T1 construct: also called hSTEAP2
T1 sequence: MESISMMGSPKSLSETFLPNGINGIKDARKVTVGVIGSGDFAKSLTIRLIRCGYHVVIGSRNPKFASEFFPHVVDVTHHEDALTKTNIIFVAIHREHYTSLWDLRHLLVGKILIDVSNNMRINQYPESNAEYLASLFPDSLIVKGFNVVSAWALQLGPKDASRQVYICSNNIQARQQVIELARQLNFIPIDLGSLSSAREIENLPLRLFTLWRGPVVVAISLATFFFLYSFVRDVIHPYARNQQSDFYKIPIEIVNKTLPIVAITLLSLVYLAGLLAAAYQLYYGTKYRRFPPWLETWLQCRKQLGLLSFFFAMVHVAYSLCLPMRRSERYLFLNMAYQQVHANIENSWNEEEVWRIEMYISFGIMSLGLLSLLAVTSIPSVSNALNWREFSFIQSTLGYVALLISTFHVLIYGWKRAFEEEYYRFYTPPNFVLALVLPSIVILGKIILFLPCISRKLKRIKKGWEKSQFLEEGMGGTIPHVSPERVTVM
The experiment in a line: FACS on HEK293 cells (low STEAP2), MFI fold above unstained, average at 100-300 nM antibody.
Procedure: (§1) Briefly, 1×10⁵ cells were incubated with 10 μg/ml of anti STEAP2 antibodies, or isotype control antibodies for 30 min on ice in antibody dilution buffer. Following one wash with antibody dilution buffer, cells were incubated with 10 μg/ml of PE conjugated anti-human or antimouse Fc secondary antibodies for 30 min on ice. Following one additional wash, samples were incubated with Cytofix (1% formaldehyde) for 20 minutes. After one final wash, samples were filtered through a Pall 96 well filtration block, run on a Hypercyt® cytometer and analyzed in ForeCyt™ (IntelliCyt, Albuquerque, N. Mex.). Mean fluorescence intensities (MFI) were expressed as fold change above unstained levels (background). The average fold above background at antibody concentrations of 100-300 nM were determined.

The target of assay [2] is T1, human six-transmembrane epithelial …. The experiment in a line: FACS on C4-2 cells (endogenous STEAP2), MFI fold above unstained, average at 100-300 nM antibody.
Procedure: as §1
Assay [3] has the same target. Nature of the assay: FACS titration on C4-2 cells (endogenous STEAP2), 4-parameter fit.
Procedure: as §1

B1: H1H11896P2 (antibody, human IgG1, V domains shown)
VH: EVQLVESGGGLVQPGGSLRLSCAASRFTFSSYAMSWVRQAPGKGLEWVSLISGSGGRTWYADSVKGRFTISRDNSKNTLFLQMNSLRAEDTAVYYCAKEGGIFGVVTFFDYWGQGTLVTVSS
VL: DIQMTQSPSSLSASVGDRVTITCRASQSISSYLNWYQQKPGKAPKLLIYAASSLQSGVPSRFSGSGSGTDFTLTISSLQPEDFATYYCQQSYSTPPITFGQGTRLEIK
On to B1, for which the “Avg F.A.B (fold above background)” value turned out to be 7 fold above background in assay [1] and 6 fold above background in assay [2]. For the same molecule, the EC50 in assay [3] was determined as 21 nM.

B2: H1H7814N (antibody, human IgG1, V domains shown)
VH: QVQLVESGGGVVQPGRSLRLSCVASGFTISSYGMNWVRQAPGKGLEWVAVISYDGGNKYSVDSVKGRFTISRDNSKNTLYLQMNSLRAEDSAVYYCARGRYFDLWGRGTLVTVSS
VL: DIQMTQSPSTLSASVGDRVTITCRASQSISSWLAWYQQKPGRAPNLLISKASSLKSGVPSRFSGSGSGTEFTLTVSSLQPDDFATYYCQQYYSYSYTFGQGTKLEIK
As to B2, the entries for the “Avg F.A.B (fold above background)” value in assay [1] and in assay [2] were 2 fold above background and 96 fold above background, respectively. This molecule gave an EC50 in assay [3] of 4 nM.

B3: H1H7810N (antibody, human IgG1, V domains shown)
VH: QVQLVESGGGVVQPGRSLRLSCAVSGFTSSTYGMNWVRQAPGKGLEWVAVISYDGSNKYYADSVKGRFTISRDNSKNTLYLQMNSLRPEDTAVYYCARGRYFDLWGRGTLVTVSS
VL: DIQMTQSPSTLSASVGDRVTITCRASQIISSWLAWYQQKPGKAPKLLIYKASSLASGVPSRFSGSGSGTEFTLTISSLQPDDFATYYCQQYKSYSYTFGQGTKLEIK
For the molecule B3, the “Avg F.A.B (fold above background)” value in assay [1] came out at 3 fold above background; in assay [2], 26 fold above background.

B4: H1H7811N (antibody, human IgG1, V domains shown)
VH: QVQLVESGGGVVQPGRSLRLSCAVSGFTSSTYGMNWVRQAPGKGLEWVAVISFDGSNKYYADSVKGRFTISRDNSKNTLYLQMSSLRPEDTAVYYCARGRYFDLWGRGTLVTVSS
VL: DTQMTQSPSTLSASVGDRVTITCRASQIISSWLAWYQQKPGKAPKLLIYKASSLASGVPSRFSGSGSGTEFTLTISSLQPDDFATYYCQQYKSYSYTFGQGTNLEIK
As for B4, the “Avg F.A.B (fold above background)” value in assay [1] came out at 5 fold above background; in assay [2], 65 fold above background. Besides, the concentration for a half-maximal effect (EC50) in assay [3] is more than 50 nM.

B5: H1H11893P2 (antibody, human IgG1, V domains shown)
VH: QVQLVQSGAEVKKPGASVKVSCKVSGYTLTELSMHWVRQAPGKGLEWMGSFDPEDDETIYAQKFQGRVTMTEDTSTDTAYMDLSSLRSEDTAVYYCSIEEVRWRGSDYYYVMDVWGQGTTVTVSS
VL: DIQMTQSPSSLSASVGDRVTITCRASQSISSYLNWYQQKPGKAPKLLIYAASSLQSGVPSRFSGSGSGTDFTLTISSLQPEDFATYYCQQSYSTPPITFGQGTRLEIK
Turning to B5, the figures for the “Avg F.A.B (fold above background)” value in assay [1] and in assay [2] were 3 fold above background and 9 fold above background, respectively. Moreover, in assay [3], the EC50 stood at 21 nM.

B6: H1H7972P (antibody, human IgG1, V domains shown)
VH: QVQLQQSGPGLVKPSQTLSLTCAISGDSVSSNSAAWNWIRQSPSRGLEWLGRTYYRSKWYNDYVVSVKSRIIFNPDTSKNQFSLQLNSVTPEDTAVYYCARVRQDYRSGPFDYWGQGTLVTVSS
VL: EIVMTQSPVTLSVSPGERATLSCWASQSVSSSLAWYQQKPGQAPRLLIYGASTRATGIPARFSGSGSGTGFTLTISSLQSEDFAVYYCQQYNNWPFTFGPGTKVDIK
B6: the “Avg F.A.B (fold above background)” value in assay [1] was found to be 4 fold above background; in assay [2] it was 119 fold above background. The molecule further registered a half-maximal effective concentration (EC50) in assay [3] of 9 nM.

B7: H1H11892P2 (antibody, human IgG1, V domains shown)
VH: EVQLVESGGGLVQPGGSLRLSCATSGFTFSNYDFHWVRQIRGQGLEWVSTIDTAGDTYFSGSVKGRFTISRDTAKTSLYLQMNSLRAGDTAVYYCARAPRYDSTGNYYNYYSYFGLDVWGQGTTVTVSS
VL: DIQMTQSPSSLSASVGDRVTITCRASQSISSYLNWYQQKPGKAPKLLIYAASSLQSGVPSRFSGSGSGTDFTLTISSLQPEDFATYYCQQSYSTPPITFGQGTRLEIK
Take B7: the “Avg F.A.B (fold above background)” value turned out to be 3 fold above background in assay [1] and 4 fold above background in assay [2].

B8: H1H11162N (antibody, human IgG1, V domains shown)
VH: QVQLQQSGPGLVKPSQTLSLTCAISGDSVSSNRAAWNWIRQSPSRGLQWLGRTYYRSKWYNDYAVSLRSRITINPVTSKNQVALHMNSVTPEDTAVYYCARAGIVVVPGPETFYYYDHGLDVWGQGTTVTVSS
VL: DIQMTQSPSSLSASVGDRVTITCRASQSIRSYLNWYQQKPGKAPELLIHAASSLQSGVPSRFSGSGSGTDFTLTISSLQPEDFASYYCQQSYSAPPITFGQGTRLEIK
Turning to B8, the “Avg F.A.B (fold above background)” value in assay [1] worked out at 10 fold above background; in assay [2], 104 fold above background. The molecule further gave a half-maximal effective concentration (EC50) in assay [3] of 1 nM.

B9: H1H11164N (antibody, human IgG1, V domains shown)
VH: QVQLQQSGPGLVKPSQTLSLTCVISGDSVSTNSAAWNWIRQSPSRGLEWLGRTYYRSKWYNDYAVSVRSRITINPVTSKNQVALHLNSVTPEDTAVYYCARAGIVVVPGPETYYYYYHGLDVWGQGTTVTVSS
VL: DIQMTQSPSSLSASVGDRVTITCRASQNIRSYLNWYQQKPGKAPKLLIHVASSLQSGVPSRFSGSGSGTDFTLTISSLQPEDFATYYCQQSYSTPPITFGHGTRLEIK
As for B9, the “Avg F.A.B (fold above background)” value in assay [1] was determined as 10 fold above background; in assay [2], 117 fold above background. For the same molecule, the EC50 in assay [3] amounted to 2 nM.

B10: H1H11897P2 (antibody, human IgG1, V domains shown)
VH: EVQLVESGGGLVQPGGSLRLSCAVSGFTFSSYAMSWVRQAPGKGLEWVSVISGSGDFTYHADSVKGRFTISRDNSKSTLYLQLNSLRAEDTAVYYCAKKGLRYFDWYDYWGQGTLVTVSS
VL: not shown
As for B10, the “Avg F.A.B (fold above background)” value came to 16 fold above background in assay [1] and 29 fold above background in assay [2]. Further, the EC50 in assay [3] was more than 50 nM.

B11: H1H11888P2 (antibody, human IgG1, V domains shown)
VH: QVQLQESGPGLVKPSQTLSLTCTVSGYSINSGGHFWSWIRQHPGKGLEWIGDIYYSGNTYSIPSLKRRISMSVDTSKNHFSLKLISVTAADTAIYYCARNSGGYLDAFDIWGQGTMVTVSS
VL: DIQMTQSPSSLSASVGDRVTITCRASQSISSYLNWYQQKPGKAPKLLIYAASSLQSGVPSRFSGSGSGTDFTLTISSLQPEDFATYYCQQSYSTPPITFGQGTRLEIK
On to B11, for which the “Avg F.A.B (fold above background)” value in assay [1] came to 9 fold above background; in assay [2], 6 fold above background. The EC50 in assay [3] was 3 nM.

B12: H1H11880P (antibody, human IgG1, V domains shown)
VH: EVQLVESGGGLVQPGGSLRLSCAASGFTFSTYAMHWVRQAPGKGLQHVSTISTNGVNTYYADSVKGRFTISRDNSKSTLYLQMGSLRAEDMAVYYCARDKDFWSGYFDYWGQGTLVTVSS
VL: EIVMTQSPGTLSVSPGERATLSCRASQSVSSNLAWYHQKPGQAPRLLIYGASTRATGFPARFSGSGSGTEFTLTISSLQSEDFAAYYCQQYNNWPITFGQGTRLEIK
On to B12, for which the results for the “Avg F.A.B (fold above background)” value in assay [1] and in assay [2] were 7 fold above background and 6 fold above background, respectively. The EC50 in assay [3] worked out at 5 nM.

B13: H1H11895P2 (antibody, human IgG1, V domains shown)
VH: QVQLQESGPGLVKPSETLSLTCTVSGGSISIYYWTWIRQPPGKGLEWIGNIFYSGSTNYNPSLKSRVTISVDTSKNQFSLKLSSVTAADTAVYYCARERLGRYDAFDNWGQGTMVTVSS
VL: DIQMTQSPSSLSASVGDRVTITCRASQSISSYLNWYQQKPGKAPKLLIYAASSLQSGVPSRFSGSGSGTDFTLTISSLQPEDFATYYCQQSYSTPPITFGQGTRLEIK
As for B13, the “Avg F.A.B (fold above background)” value in assay [1] stood at 4 fold above background; in assay [2], 6 fold above background. For the same molecule, the EC50 in assay [3] came out at 16 nM.

B14: H1H11163N (antibody, human IgG1, V domains shown)
VH: QVQLQQSGPGLVKPSQALSLTCAISGDSVSSNSAAWNWIRQSPSRGLEWLGRTYYRSKWYNDYAVSVKSRITINPDTSKNHFSLHLNSMTPEDTAVYYCARARIVVVPGPEVYYYYYYDMDVWGQGTTVTVSS
VL: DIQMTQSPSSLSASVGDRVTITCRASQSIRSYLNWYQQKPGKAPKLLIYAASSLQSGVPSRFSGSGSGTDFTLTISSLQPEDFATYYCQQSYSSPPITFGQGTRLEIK
For the molecule B14, the “Avg F.A.B (fold above background)” value came to 6 fold above background in assay [1] and 90 fold above background in assay [2]. In addition, the EC50 in assay [3] worked out at 3 nM.

B15: H1H11243N (antibody, human IgG1, V domains shown)
VH: QVQLQQSGPGLVKPSQTLSLTCAISGDSVSSNSAAWNWIRQSPSRGLEWLGRTYYRSKWYNDYAVSVKSRITINPDTSKNQFSLHLNSVTPEDTAVYYCARAGIVVVPGPDIYYYYYYGMDVWGQGTTVTVSS
VL: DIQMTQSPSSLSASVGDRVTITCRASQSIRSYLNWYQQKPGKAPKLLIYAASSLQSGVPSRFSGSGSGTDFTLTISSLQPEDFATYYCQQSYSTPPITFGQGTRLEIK
In the case of B15, the “Avg F.A.B (fold above background)” value was 3 fold above background in assay [1] and 41 fold above background in assay [2].

B16: H1H11878P (antibody, human IgG1, V domains shown)
VH: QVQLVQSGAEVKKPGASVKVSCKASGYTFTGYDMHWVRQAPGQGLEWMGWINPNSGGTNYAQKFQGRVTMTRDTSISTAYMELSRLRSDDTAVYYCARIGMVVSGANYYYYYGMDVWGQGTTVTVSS
VL: AIQMTQSPSSLSAYVGDRVIITCRASQGIRNDLGWYQQKPGKAPKLLIYAASSLQSGVPSRFSGSRSGTVFTLTISSLQPEDFATYYCLQDYNYPWTFGQGTKVEIK
B16: the “Avg F.A.B (fold above background)” value is 5 fold above background in assay [1] and 27 fold above background in assay [2]. The molecule further came in with an EC50 in assay [3] of more than 50 nM.

B17: H1H11894P2 (antibody, human IgG1, V domains shown)
VH: QVQLVQSGAEVKKPGSSVKVSCRASGGTFSRFAIGWVRQAPGQGLEWMGGIIPIFGTASYAQKFQGRVTITTDESTSTAYMELRSLRSEDTAVYYCTREGITGRGYYYYGMDVWGQGTTVTVSS
VL: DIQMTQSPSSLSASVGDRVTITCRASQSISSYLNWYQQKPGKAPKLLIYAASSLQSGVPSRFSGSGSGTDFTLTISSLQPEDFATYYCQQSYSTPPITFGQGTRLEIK
Take B17: the “Avg F.A.B (fold above background)” value was 4 fold above background in assay [1] and 7 fold above background in assay [2].

B18: H1H7809N (antibody, human IgG1, V domains shown)
VH: QVQLVESGGGVVQPGRSLGLSCAASGFTFSSYGMHWVRQAPGKGLEWVAVIWYDGSNKYYVDSVKGRFTISRDNSKNTLYLQMNSLRAEDTAVYYCAREGLRFLENYYYYYGMDVWGQGTTVTVSS
VL: EIVLTQSPGTLSLSPGERATLSCRASQSISSTYLAWYQQRPGQAPRLLIYGASSRATGIPDRFSGSGSGTDFTLTISRLEPEDFAVYYCQQYGTSPYTFGQGTKLEIK
With B18, the figures for the “Avg F.A.B (fold above background)” value in assay [1] and in assay [2] were 31 fold above background and 89 fold above background, respectively. In assay [3], this molecule registered an EC50 of more than 50 nM.
